# Data reported in PMC9482650, “Quantitative fragmentomics allow affinity mapping of interactomes” (Nature Communications, 2022).
# How the values were obtained:
# Assay in all cases: holdup assay
# Set-up in all cases: key: below the threshold = too weak to quantify, mostly under pKd 3.1 to 4
# HTRA4, P83105 = biological target: T1, HTRA4, P83105
# T1 sequence (P83105 378-476, limits assumed, looked up): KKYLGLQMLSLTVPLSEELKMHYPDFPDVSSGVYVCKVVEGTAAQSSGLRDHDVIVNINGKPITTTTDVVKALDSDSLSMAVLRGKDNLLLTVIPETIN
# MAGI2_2, Q86UL8 = biological target: MAGI2_2, Q86UL8
# DVL3, Q92997 = biological target: T2, DVL3, Q92997
# T2 sequence (Q92997 244-331, limits assumed, looked up): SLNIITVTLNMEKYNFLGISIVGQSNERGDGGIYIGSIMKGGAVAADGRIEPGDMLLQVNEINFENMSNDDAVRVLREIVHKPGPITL
# PDZD2_2, O15018 = biological target: T3, PDZD2_2, O15018
# T3 sequence (O15018 329-429, limits assumed, looked up): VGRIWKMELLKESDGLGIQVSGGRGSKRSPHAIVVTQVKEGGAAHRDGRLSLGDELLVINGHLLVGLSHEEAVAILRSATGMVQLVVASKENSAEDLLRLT
# MAGI2_3, Q86UL8 = biological target: MAGI2_3, Q86UL8
# HTRA2, O43464 = biological target: HTRA2, O43464
# Inadl_9, Q8NI35 = biological target: Inadl_9, Q8NI35
# MPP6, Q9NZW5 = biological target: T4, MPP6, Q9NZW5
# T4 sequence (Q9NZW5 125-219, limits assumed, looked up): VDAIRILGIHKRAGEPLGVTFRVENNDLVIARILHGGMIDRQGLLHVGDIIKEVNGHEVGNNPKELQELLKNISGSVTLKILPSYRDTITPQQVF
# LAP2, Q96RT1 = biological target: LAP2, Q96RT1
# DLG2_2, Q15700 = biological target: DLG2_2, Q15700
# NHERF3_4, Q5T2W1 = biological target: T5, NHERF3_4, Q5T2W1
# T5 sequence (Q5T2W1 373-468, limits assumed, looked up): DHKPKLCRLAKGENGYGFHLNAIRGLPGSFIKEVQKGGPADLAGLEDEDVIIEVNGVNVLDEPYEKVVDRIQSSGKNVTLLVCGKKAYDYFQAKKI
# NHERF4_2, Q86UT5 = biological target: NHERF4_2, Q86UT5
# GRASP, Q7Z6J2 = biological target: GRASP, Q7Z6J2
# PDZRN4_1, Q6ZMN7 = biological target: PDZRN4_1, Q6ZMN7
# FRMPD1, Q5SYB0 = biological target: T6, FRMPD1, Q5SYB0
# T6 sequence (Q5SYB0 52-145, limits assumed, looked up): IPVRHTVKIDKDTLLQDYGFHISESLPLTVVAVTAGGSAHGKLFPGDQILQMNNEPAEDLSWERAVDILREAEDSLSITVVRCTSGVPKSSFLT
# NHERF2_2, Q15599 = biological target: NHERF2_2, Q15599
# DLG3_3, Q92796 = biological target: T7, DLG3_3, Q92796
# T7 sequence (Q92796 374-475, limits assumed, looked up): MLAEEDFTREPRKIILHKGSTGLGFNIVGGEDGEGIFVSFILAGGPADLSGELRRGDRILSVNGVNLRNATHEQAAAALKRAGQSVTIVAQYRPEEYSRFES
# NHERF3_3, Q5T2W1 = biological target: T8, NHERF3_3, Q5T2W1
# T8 sequence (Q5T2W1 238-333, limits assumed, looked up): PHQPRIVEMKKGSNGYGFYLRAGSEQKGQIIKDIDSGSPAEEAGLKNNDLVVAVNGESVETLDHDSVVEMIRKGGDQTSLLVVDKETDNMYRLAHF
# CARD11, Q9BXL7 = biological target: T9, CARD11, Q9BXL7
# T9 sequence (Q9BXL7 662-765, limits assumed, looked up): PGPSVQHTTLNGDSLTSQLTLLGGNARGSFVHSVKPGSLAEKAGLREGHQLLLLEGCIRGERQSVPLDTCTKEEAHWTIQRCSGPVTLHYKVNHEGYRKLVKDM
# APBA1_2, Q02410 = biological target: T10, APBA1_2, Q02410
# T10 sequence (Q02410 742-832, limits assumed, looked up): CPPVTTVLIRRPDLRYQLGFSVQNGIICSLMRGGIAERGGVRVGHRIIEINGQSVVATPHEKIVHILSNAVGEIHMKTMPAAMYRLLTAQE
# FRMPD4, Q14CM0 = biological target: FRMPD4, Q14CM0
# PDZD7_3, Q9H5P4 = biological target: T11, PDZD7_3, Q9H5P4
# T11 sequence (Q9H5P4 857-944, limits assumed, looked up): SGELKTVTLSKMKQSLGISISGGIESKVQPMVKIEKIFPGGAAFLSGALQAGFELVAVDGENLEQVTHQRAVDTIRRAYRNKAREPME
# Inadl_8, Q8NI35 = biological target: Inadl_8, Q8NI35
# RHPN1, Q8TCX5 = biological target: T12, RHPN1, Q8TCX5
# T12 sequence (Q8TCX5 508-602, limits assumed, looked up): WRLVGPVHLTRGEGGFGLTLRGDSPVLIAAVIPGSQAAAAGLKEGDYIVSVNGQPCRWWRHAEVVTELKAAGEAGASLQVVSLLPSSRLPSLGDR
# IL16_4, Q14005 = biological target: IL16_4, Q14005
# Inadl_10, Q8NI35 = biological target: Inadl_10, Q8NI35
# [1] = plain residues with an end cap or a label only (N-terminal biotin on a linker: ttds)
# [2] = plain residues with an end cap or a label only (N-terminal biotin on a linker: ahx)
# Chain of IL16_4, Q14005 (Q14005 1229-1329): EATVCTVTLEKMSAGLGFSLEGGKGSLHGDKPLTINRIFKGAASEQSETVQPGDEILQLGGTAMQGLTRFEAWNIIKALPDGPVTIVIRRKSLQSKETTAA
# Chain of NHERF4_2, Q86UT5 (Q86UT5 220-308): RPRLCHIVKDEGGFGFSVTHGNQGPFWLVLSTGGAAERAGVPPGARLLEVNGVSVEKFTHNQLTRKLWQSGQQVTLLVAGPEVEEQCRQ
# Chain of NHERF2_2, Q15599 (Q15599 142-238): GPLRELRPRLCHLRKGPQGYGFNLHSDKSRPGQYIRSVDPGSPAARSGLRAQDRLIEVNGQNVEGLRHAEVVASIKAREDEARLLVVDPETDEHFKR
# Chain of PDZRN4_1, Q6ZMN7 (Q6ZMN7 213-318): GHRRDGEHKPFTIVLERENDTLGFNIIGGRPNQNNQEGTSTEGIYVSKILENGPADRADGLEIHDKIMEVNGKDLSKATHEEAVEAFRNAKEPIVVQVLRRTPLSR
# Chain of Inadl_8, Q8NI35 (Q8NI35 1425-1530): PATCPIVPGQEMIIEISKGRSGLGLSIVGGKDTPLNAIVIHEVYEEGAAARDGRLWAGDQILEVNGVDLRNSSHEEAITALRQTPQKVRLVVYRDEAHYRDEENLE
# Chain of GRASP, Q7Z6J2 (Q7Z6J2 96-193): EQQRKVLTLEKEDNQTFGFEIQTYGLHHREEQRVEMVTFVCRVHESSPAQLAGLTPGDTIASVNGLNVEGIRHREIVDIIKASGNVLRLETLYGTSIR
# Chain of Inadl_9, Q8NI35 (Q8NI35 1530-1615): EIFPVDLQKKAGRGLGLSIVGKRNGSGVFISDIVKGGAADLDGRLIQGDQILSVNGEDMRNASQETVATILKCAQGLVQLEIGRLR
# Chain of FRMPD4, Q14CM0 (Q14CM0 67-160): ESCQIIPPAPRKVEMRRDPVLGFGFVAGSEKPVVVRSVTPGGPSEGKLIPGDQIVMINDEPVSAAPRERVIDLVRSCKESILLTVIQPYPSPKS
# Chain of HTRA2, O43464 (O43464 355-458): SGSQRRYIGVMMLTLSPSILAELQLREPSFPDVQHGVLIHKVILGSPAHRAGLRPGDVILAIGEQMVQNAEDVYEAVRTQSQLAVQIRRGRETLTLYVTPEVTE
# Chain of MAGI2_2, Q86UL8 (Q86UL8 410-522): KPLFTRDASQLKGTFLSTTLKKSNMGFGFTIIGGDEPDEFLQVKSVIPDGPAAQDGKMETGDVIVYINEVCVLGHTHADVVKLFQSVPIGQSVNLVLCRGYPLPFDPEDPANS
# Chain of Inadl_10, Q8NI35 (Q8NI35 1673-1763): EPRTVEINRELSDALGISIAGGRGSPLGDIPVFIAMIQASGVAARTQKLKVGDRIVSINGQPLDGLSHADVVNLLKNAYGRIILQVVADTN
# Chain of MAGI2_3, Q86UL8 (Q86UL8 600-682): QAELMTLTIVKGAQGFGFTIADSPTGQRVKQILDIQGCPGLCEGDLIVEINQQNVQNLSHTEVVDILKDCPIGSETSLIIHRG
# Chain of LAP2, Q96RT1 (Q96RT1 other isoform, or with tags, fused parts or gaps): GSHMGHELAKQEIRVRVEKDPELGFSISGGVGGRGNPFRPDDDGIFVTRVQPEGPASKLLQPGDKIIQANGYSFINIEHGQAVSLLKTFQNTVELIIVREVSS
# Chain of DLG2_2, Q15700 (Q15700 189-283): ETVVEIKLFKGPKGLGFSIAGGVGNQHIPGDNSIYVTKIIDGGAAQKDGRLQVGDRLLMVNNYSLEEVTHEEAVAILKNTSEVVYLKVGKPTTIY
binder,measurement,setting,value
"SRSRRRETAL [HPV33-E6, P06427]",pKd,"HTRA4, P83105; [1]",below the threshold
same,pKd,"MAGI2_2, Q86UL8; [1]",5.31
same,pKd,"DVL3, Q92997; [1]",below the threshold
same,pKd,"PDZD2_2, O15018; [1]",below the threshold
same,pKd,"MAGI2_3, Q86UL8; [1]",below the threshold
same,pKd,"HTRA2, O43464; [1]",3.46
same,pKd,"Inadl_9, Q8NI35; [1]",below the threshold
same,pKd,"MPP6, Q9NZW5; [1]",below the threshold
same,pKd,"LAP2, Q96RT1; [1]",below the threshold
same,pKd,"DLG2_2, Q15700; [1]",4.57
same,pKd,"NHERF3_4, Q5T2W1; [1]",3.97
same,pKd,"NHERF4_2, Q86UT5; [1]",below the threshold
same,pKd,"GRASP, Q7Z6J2; [1]",3.49
same,pKd,"PDZRN4_1, Q6ZMN7; [1]",5.21
same,pKd,"FRMPD1, Q5SYB0; [1]",below the threshold
same,pKd,"NHERF2_2, Q15599; [1]",3.97
same,pKd,"DLG3_3, Q92796; [1]",5.07
same,pKd,"NHERF3_3, Q5T2W1; [1]",below the threshold
same,pKd,"CARD11, Q9BXL7; [1]",below the threshold
same,pKd,"APBA1_2, Q02410; [1]",below the threshold
same,pKd,"FRMPD4, Q14CM0; [1]",3.87
same,pKd,"PDZD7_3, Q9H5P4; [1]",4.65
same,pKd,"Inadl_8, Q8NI35; [1]",below the threshold
same,pKd,"RHPN1, Q8TCX5; [1]",3.81
same,pKd,"IL16_4, Q14005; [1]",below the threshold
same,pKd,"Inadl_10, Q8NI35; [1]",below the threshold
"FVETQHQTQV [FAT3, Q8TDW7]",pKd,"HTRA4, P83105; [1]",below the threshold
same,pKd,"MAGI2_2, Q86UL8; [1]",4.02
same,pKd,"DVL3, Q92997; [1]",3.65
same,pKd,"PDZD2_2, O15018; [1]",4.35
same,pKd,"MAGI2_3, Q86UL8; [1]",3.63
same,pKd,"HTRA2, O43464; [1]",below the threshold
same,pKd,"Inadl_9, Q8NI35; [1]",3.61
same,pKd,"MPP6, Q9NZW5; [1]",below the threshold
same,pKd,"LAP2, Q96RT1; [1]",3.65
same,pKd,"DLG2_2, Q15700; [1]",4.5
same,pKd,"NHERF3_4, Q5T2W1; [1]",below the threshold
same,pKd,"NHERF4_2, Q86UT5; [1]",below the threshold
same,pKd,"GRASP, Q7Z6J2; [1]",3.69
same,pKd,"PDZRN4_1, Q6ZMN7; [1]",below the threshold
same,pKd,"FRMPD1, Q5SYB0; [1]",below the threshold
same,pKd,"NHERF2_2, Q15599; [1]",below the threshold
same,pKd,"DLG3_3, Q92796; [1]",3.58
same,pKd,"NHERF3_3, Q5T2W1; [1]",below the threshold
same,pKd,"CARD11, Q9BXL7; [1]",below the threshold
same,pKd,"APBA1_2, Q02410; [1]",3.9
same,pKd,"FRMPD4, Q14CM0; [1]",below the threshold
same,pKd,"PDZD7_3, Q9H5P4; [1]",4.11
same,pKd,"Inadl_8, Q8NI35; [1]",below the threshold
same,pKd,"RHPN1, Q8TCX5; [1]",4.32
same,pKd,"IL16_4, Q14005; [1]",below the threshold
same,pKd,"Inadl_10, Q8NI35; [1]",3.5
"YNSFLSVTTV [PDZRN3, Q9UPQ7]",pKd,"HTRA4, P83105; [2]",4.2
same,pKd,"MAGI2_2, Q86UL8; [2]",3.95
same,pKd,"DVL3, Q92997; [2]",below the threshold
same,pKd,"PDZD2_2, O15018; [2]",3.55
same,pKd,"MAGI2_3, Q86UL8; [2]",3.56
same,pKd,"HTRA2, O43464; [2]",3.48
same,pKd,"Inadl_9, Q8NI35; [2]",below the threshold
same,pKd,"MPP6, Q9NZW5; [2]",below the threshold
same,pKd,"LAP2, Q96RT1; [2]",below the threshold
same,pKd,"DLG2_2, Q15700; [2]",3.98
same,pKd,"NHERF3_4, Q5T2W1; [2]",3.63
same,pKd,"NHERF4_2, Q86UT5; [2]",below the threshold
same,pKd,"GRASP, Q7Z6J2; [2]",4.15
same,pKd,"PDZRN4_1, Q6ZMN7; [2]",below the threshold
same,pKd,"FRMPD1, Q5SYB0; [2]",below the threshold
same,pKd,"NHERF2_2, Q15599; [2]",below the threshold
same,pKd,"DLG3_3, Q92796; [2]",3.67
same,pKd,"NHERF3_3, Q5T2W1; [2]",below the threshold
same,pKd,"CARD11, Q9BXL7; [2]",below the threshold
same,pKd,"APBA1_2, Q02410; [2]",below the threshold
same,pKd,"FRMPD4, Q14CM0; [2]",below the threshold
same,pKd,"PDZD7_3, Q9H5P4; [2]",5.58
same,pKd,"Inadl_8, Q8NI35; [2]",4.3
same,pKd,"RHPN1, Q8TCX5; [2]",4.4
same,pKd,"IL16_4, Q14005; [2]",below the threshold
same,pKd,"Inadl_10, Q8NI35; [2]",3.7
"PKMKLNETSF [SHKBP1, Q8TBC3]",pKd,"HTRA4, P83105; [2]",below the threshold
same,pKd,"MAGI2_2, Q86UL8; [2]",below the threshold
same,pKd,"DVL3, Q92997; [2]",below the threshold
same,pKd,"PDZD2_2, O15018; [2]",below the threshold
same,pKd,"MAGI2_3, Q86UL8; [2]",below the threshold
same,pKd,"HTRA2, O43464; [2]",below the threshold
same,pKd,"Inadl_9, Q8NI35; [2]",below the threshold
same,pKd,"MPP6, Q9NZW5; [2]",below the threshold
same,pKd,"LAP2, Q96RT1; [2]",below the threshold
same,pKd,"DLG2_2, Q15700; [2]",below the threshold
same,pKd,"NHERF3_4, Q5T2W1; [2]",below the threshold
same,pKd,"NHERF4_2, Q86UT5; [2]",below the threshold
same,pKd,"GRASP, Q7Z6J2; [2]",3.88
same,pKd,"PDZRN4_1, Q6ZMN7; [2]",below the threshold
same,pKd,"FRMPD1, Q5SYB0; [2]",below the threshold
same,pKd,"NHERF2_2, Q15599; [2]",4.32
same,pKd,"DLG3_3, Q92796; [2]",below the threshold
same,pKd,"NHERF3_3, Q5T2W1; [2]",below the threshold
same,pKd,"CARD11, Q9BXL7; [2]",below the threshold
same,pKd,"APBA1_2, Q02410; [2]",below the threshold
same,pKd,"FRMPD4, Q14CM0; [2]",below the threshold
same,pKd,"PDZD7_3, Q9H5P4; [2]",below the threshold
same,pKd,"Inadl_8, Q8NI35; [2]",below the threshold
same,pKd,"RHPN1, Q8TCX5; [2]",3.72
same,pKd,"IL16_4, Q14005; [2]",below the threshold
same,pKd,"Inadl_10, Q8NI35; [2]",below the threshold
